We go through 8 molecules from patent US20260085097A1 (TEXAS A AND M UNIVERSITY SYSTEM, published 2026).

The target of assay [1] is T1, Shiga toxin 2a (Stx2a) holotoxin (Escherichia coli (Shiga …, UniProt P09385 23-319; P09386 20-89).
T1 sequence (P09385 23-319 limits assumed, one chain of several): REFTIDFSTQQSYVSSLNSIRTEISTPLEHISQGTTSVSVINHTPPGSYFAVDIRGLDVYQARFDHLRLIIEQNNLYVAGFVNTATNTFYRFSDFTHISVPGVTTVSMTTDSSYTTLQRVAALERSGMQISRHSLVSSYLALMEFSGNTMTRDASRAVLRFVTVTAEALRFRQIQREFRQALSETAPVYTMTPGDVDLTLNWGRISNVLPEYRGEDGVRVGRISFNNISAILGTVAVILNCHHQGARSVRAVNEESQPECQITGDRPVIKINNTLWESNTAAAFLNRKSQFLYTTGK
Assay [2] deals with T1, Shiga toxin 2a (Stx2a) holotoxin. Briefly: cell-based or functional assay.
Assay [3] addresses T2, Stx2a-A1 fragment with a C-terminus 6xHis tag (Escherichia coli (Shiga …, UniProt P09385 23-272)). Briefly: ELISA at pH 6.0, plate coated with 4 ug/mL Stx2a-A1. In general terms: In an ELISA, binding on a coated surface is turned into a signal by an enzyme label.
Assay [4] has as its target T2, Stx2a-A1 fragment with a C-terminus …. Briefly: ELISA at pH 7.4, plate coated with 4 ug/mL Stx2a-A1.
The target of assay [5] is T1, Shiga toxin 2a (Stx2a) holotoxin. The assay can be described thus: BLI (BLItz), biotinylated Stx2a holotoxin on streptavidin sensor, apparent KD.
The target is the same in assay [6]. The assay can be described thus: screen of E. coli lysates for Stx2a binding after off-rate selection.
Target sequence in this assay (P09385 23-319 limits assumed, one chain of several): as above
For assay [7] the target is unchanged. This is another data set of the same source.
Target sequence in this assay (P09385 23-319 limits assumed, one chain of several): as above
Assay [8] shares this target. This is another data set of the same source.
Target sequence in this assay (P09385 23-319 limits assumed, one chain of several): as above
The target is the same in assay [9]. The assay can be described thus: BLI (BLItz), biotinylated Stx2a holotoxin on streptavidin sensor.
Target sequence in this assay (P09385 23-319 limits assumed, one chain of several): as above
Assay [10] shares this target. The assay can be described thus: ELISA, plate coated with full-length Stx2a.
Target sequence in this assay (P09385 23-319 limits assumed, one chain of several): as above
Assay [11] has the same target. The source holds these as a separate data set.
In assay [12] the target is Shiga toxin 2a (Stx2a) holotoxin (Escherichia coli (Shiga …, UniProt P09385 23-319; P09386 20-89). Briefly: cell-based or functional assay. The source holds these as a separate data set.
Target sequence in this assay (P09385 23-319, chain 1 of 2): as the sequence (P09385 23-319 limits assumed, one chain of several) above
Target sequence in this assay (P09386 20-89, tags left off, chain 2 of 2): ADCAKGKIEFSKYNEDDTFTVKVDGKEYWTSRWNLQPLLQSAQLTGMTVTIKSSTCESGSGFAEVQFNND

Where a chain is given by its changes, count along the chain named. Like-named read-outs stand apart in the source and are kept apart here.

T2 sequence (P09385 23-272, tags left off): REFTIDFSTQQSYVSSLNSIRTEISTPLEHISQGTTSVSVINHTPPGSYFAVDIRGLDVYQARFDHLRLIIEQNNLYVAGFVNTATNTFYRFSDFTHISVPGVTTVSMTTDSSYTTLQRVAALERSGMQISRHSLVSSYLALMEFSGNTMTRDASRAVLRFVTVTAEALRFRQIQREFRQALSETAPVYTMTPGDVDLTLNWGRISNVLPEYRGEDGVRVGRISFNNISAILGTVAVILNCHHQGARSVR

B1: DARPin HT (designed binder)
chain: MGSSHHHHHHSSGLVPRGSHMEQKLISEEDLGSDLGKKLLEAARAGQDDEVRILMANGADVNAGDPFGFTPLHLAAMFGHLEIVEVLLKNGADVNAHDEYGFTPLHLAAVVGHLEIVEVLLKNGADVNACDNQGGTPLHLAAHTGHLEIVEVLLKHGADVNAQDKFGKTAFDISIDNGNEDLAEILQSSS
Consider B1, for which the EC50 (read off the curve) (in general, the concentration needed to bring the measured effect to its halfway point) in [1] was around 1 nM. Further, the “EC50 of Stx2a neutralization, Vero E6 toxin challenge assay” value in assay [2] turned out to be 1900 nM. Moreover, the EC50 in assay [3] and in assay [4] was 1.2 nM throughout. In assay [5], the Kd was found to be 409 nM.

B2: DARPin Off-rate #27 (designed binder)
chain: B1 chain with I53F, V94E, D98E
With B2, in assay [6], the binding result is on record as “binds”.

B3: DARPin 10B (designed binder)
chain: B1 chain with H143V, T144D
Take B3: the “EC50 (read off the curve)” value in assay [7] was around 4 nM. Moreover, the results for the Kd in [8], in assay [5] and in [9] were 3540 nM, 3450 nM and 3540 nM, respectively. Also, the “EC50 of Stx2a neutralization, Vero E6 toxin challenge assay” value in [2] turned out to be 2700 nM. Besides, in assay [2], the “EC50 of Stx2a neutralization, Vero E6 toxin challenge assay (cell viability)” value (from here on “EC50 of Stx2a neutralization … (cell viability)”) was above 1000 nM. The EC50 (in general, the concentration at which the effect is half-maximal) in assay [3] worked out at 3.8 nM; in [4] it was 3.7 nM.

B4: DARPin RI (designed binder)
chain: B1 chain with H143R, T144I
With B4, the “EC50 (read off the curve)” value in assay [1] is around 1 nM. For the same molecule, the “fold improved toxin neutralization activity in the Vero E6 toxin challenge assay” value in [2] is around 4 fold. Also, the “fold improved toxin-binding ability in ELISA (against parent 10B)” value in assay [10] is around 8 fold.

B5: DARPin Off-rate #28 (designed binder)
chain: B1 chain with F78Y, D98E, H143R, T144I
For the molecule B5, the binding result in assay [6] is on record as “binds”.

B6: DARPin Off-rate #26 (designed binder)
chain: B1 chain with D98E, A142S, N177T
For the molecule B6, in assay [6], the binding result is “binds”.

B7: DARPin #3 (designed binder)
chain: MGSSHHHHHHSSGLVPRGSHMEQKLISEEDLGSDLGKKLLEAARAGQDDEVRILMANGADVNACDSNGRTPLHLAAVRGHLEIVEVLLKNGADVNAWDVIGKTPLHLAADGGHLEIVEVLLKNGADVNAWDLIGRTPLHLAALDGHLEIVEVLLEHGADVNAYDRPGHTPLHLAARRGHLEIVEVLLKYGADVNAQDKFGKTAFDISIDNGNEDLAEILQSSS
For the molecule B7, the koff – broadly, the rate constant with which the complex falls apart – in [11] came to 0.0438 s⁻¹. In addition, the “EC50 of Stx2a neutralization … (cell viability)” value in assay [2] is above 1000 nM. The results for the Kd in assay [5] and in assay [9] were 8.8 nM and 8.83 nM, respectively.

B8: DARPin #16 (designed binder)
chain: DLGKKLLEAARAGQDDEVRILMANGADVNAADPAGWTPLHLAACYGHLEIVGVLLKNGADVNALDWGGWTPLHLAAVIGHLEIVGVLLKHGADVNATDLSGWTPLHLAAFRGHLEIVEVLLKHGADVNAQDKFGKTAFDISIDNGNEDLAEILQSSS
For B8, the “EC50 of Stx2a neutralization … (cell viability)” value in assay [12] was above 1000 nM.
